{"source": "patent US20250179589A1", "about": "“SYNTHETIC LETHALITY AND THE TREATMENT OF CANCER” (PACYLEX PHARMACEUTICALS INC., priority 2012, published 2025)", "molecules": {"B1": {"name": "His-26NMT2 (His-tagged caspase-cleaved, truncated human NMT2) (protein)", "chain": "GDNEEETEHAKGSPGGYLGAKKKKKKQKRKKEKPNSGGTKSDSASDSQEIKIQQPSKNPSVPMQKLQDIQRAMELLSACQGPARNIDEAAKHRYQFWDTQPVPKLDEVITSHGAIEPDKDNVRQEPYSLPQGFMWDTLDLSDAEVLKELYTLLNENYVEDDDNMFRFDYSPEFLLWALRPPGWLLQWHCGVRVSSNKKLVGFISAIPANIRIYDSVKKMVEINFLCVHKKLRSKRVAPVLIREITRRVNLEGIFQAVYTAGVVLPKPIATCRYWHRSLNPRKLVEVKFSHLSRNMTLQRTMKLYRLPDVTKTSGLRPMEPKDIKSVRELINTYLKQFHLAPVMDEEEVAHWFLPREHIIDTFVVESPNGKLTDFLSFYTLPSTVMHHPAHKSLKAAYSFYNIHTETPLLDLMSDALILAKSKGFDVFNALDLMENKTFLEKLKFGIGDGNLQYYLYNWRCPGTDSEKVGLVLQ"}, "B2": {"name": "His-68NMT2 (His-tagged caspase-cleaved, truncated human NMT2) (protein)", "chain": "SASDSQEIKIQQPSKNPSVPMQKLQDIQRAMELLSACQGPARNIDEAAKHRYQFWDTQPVPKLDEVITSHGAIEPDKDNVRQEPYSLPQGFMWDTLDLSDAEVLKELYTLLNENYVEDDDNMFRFDYSPEFLLWALRPPGWLLQWHCGVRVSSNKKLVGFISAIPANIRIYDSVKKMVEINFLCVHKKLRSKRVAPVLIREITRRVNLEGIFQAVYTAGVVLPKPIATCRYWHRSLNPRKLVEVKFSHLSRNMTLQRTMKLYRLPDVTKTSGLRPMEPKDIKSVRELINTYLKQFHLAPVMDEEEVAHWFLPREHIIDTFVVESPNGKLTDFLSFYTLPSTVMHHPAHKSLKAAYSFYNIHTETPLLDLMSDALILAKSKGFDVFNALDLMENKTFLEKLKFGIGDGNLQYYLYNWRCPGTDSEKVGLVLQ"}, "B3": {"name": "His-NMT1 (recombinant hexahistidine-tagged full-length human N-myristoyltransferase 1) (protein)", "chain": "MADESETAVKPPAPPLPQMMEGNGNGHEHCSDCENEEDNSYNRGGLSPANDTGAKKKKKKQKKKKEKGSETDSAQDQPVKMNSLPAERIQEIQKAIELFSVGQGPAKTMEEASKRSYQFWDTQPVPKLGEVVNTHGPVEPDKDNIRQEPYTLPQGFTWDALDLGDRGVLKELYTLLNENYVEDDDNMFRFDYSPEFLLWALRPPGWLPQWHCGVRVVSSRKLVGFISAIPANIHIYDTEKKMVEINFLCVHKKLRSKRVAPVLIREITRRVHLEGIFQAVYTAGVVLPKPVGTCRYWHRSLNPRKLIEVKFSHLSRNMTMQRTMKLYRLPETPKTAGLRPMETKDIPVVHQLLTRYLKQFHLTPVMSQEEVEHWFYPQENIIDTFVVENANGEVTDFLSFYTLPSTIMNHPTHKSLKAAYSFYNVHTQTPLLDLMSDALVLAKMKGFDVFNALDLMENKTFLEKLKFGIGDGNLQYYLYNWKCPSMGAEKVGLVLQ"}, "B4": {"name": "recombinant human active caspase-8 (protein)", "chain": "SESQTLDKVYQMKSKPRGYCLIINNHNFAKAREKVPKLHSIRDRNGTHLDAGALTTTFEELHFEIKPHDDCTVEQIYEILKIYQLMDHSNMDCFICCILSHGDKGIIYGTDGQEAPIYELTSQFTGLKCPSLAGKPKVFFIQACQGDNYQKGIPVETDSEEQPYLEMDLSSPQTRYIPDEADFLLGMATVNNCVSYRNPAEGTWYIQSLCQSLRERCPRGDDILTILTEVNYEVSNKDDKKNMGKQMPQPTFTLRKKLVFPSD"}, "B5": {"name": "recombinant human active caspase-3 (protein)", "chain": "SGISLDNSYKMDYPEMGLCIIINNKNFHKSTGMTSRSGTDVDAANLRETFRNLKYEVRNKNDLTREEIVELMRDVSKEDHSKRSSFVCVLLSHGEEGIIFGTNGPVDLKKITNFFRGDRCRSLTGKPKLFIIQACRGTELDCGIETDSGVDDDMACHKIPVEADFLYAYSTAPGYYSWRNSKDGSWFIQSLCAMLKQYADKLEFMHILTRVNRKVATEFESFSFDATFHAKKQIPCIVSMLTKELYFYH"}, "B6": {"name": "His-NMT2 (recombinant hexahistidine-tagged full-length human N-myristoyltransferase 2) (protein)", "chain": "MAEDSESAASQQSLELDDQDTCGIDGDNEEETEHAKGSPGGYLGAKKKKKKQKRKKEKPNSGGTKSDSASDSQEIKIQQPSKNPSVPMQKLQDIQRAMELLSACQGPARNIDEAAKHRYQFWDTQPVPKLDEVITSHGAIEPDKDNVRQEPYSLPQGFMWDTLDLSDAEVLKELYTLLNENYVEDDDNMFRFDYSPEFLLWALRPPGWLLQWHCGVRVSSNKKLVGFISAIPANIRIYDSVKKMVEINFLCVHKKLRSKRVAPVLIREITRRVNLEGIFQAVYTAGVVLPKPIATCRYWHRSLNPRKLVEVKFSHLSRNMTLQRTMKLYRLPDVTKTSGLRPMEPKDIKSVRELINTYLKQFHLAPVMDEEEVAHWFLPREHIIDTFVVESPNGKLTDFLSFYTLPSTVMHHPAHKSLKAAYSFYNIHTETPLLDLMSDALILAKSKGFDVFNALDLMENKTFLEKLKFGIGDGNLQYYLYNWRCPGTDSEKVGLVLQ"}, "B7": {"name": "His-73NMT1 (His-tagged caspase-cleaved, truncated human NMT1) (protein)", "chain": "SAQDQPVKMNSLPAERIQEIQKAIELFSVGQGPAKTMEEASKRSYQFWDTQPVPKLGEVVNTHGPVEPDKDNIRQEPYTLPQGFTWDALDLGDRGVLKELYTLLNENYVEDDDNMFRFDYSPEFLLWALRPPGWLPQWHCGVRVVSSRKLVGFISAIPANIHIYDTEKKMVEINFLCVHKKLRSKRVAPVLIREITRRVHLEGIFQAVYTAGVVLPKPVGTCRYWHRSLNPRKLIEVKFSHLSRNMTMQRTMKLYRLPETPKTAGLRPMETKDIPVVHQLLTRYLKQFHLTPVMSQEEVEHWFYPQENIIDTFVVENANGEVTDFLSFYTLPSTIMNHPTHKSLKAAYSFYNVHTQTPLLDLMSDALVLAKMKGFDVFNALDLMENKTFLEKLKFGIGDGNLQYYLYNWKCPSMGAEKVGLVLQ"}}, "key": {"Jurkat T cells": {"system": "Jurkat T cells", "test": "Effect of HMA on the induction of apoptosis, immunoblot", "assay_type": "cell-based, human", "protocol": "HMA was saponified and conjugated to bovine serum albumin (BSA) prior to addition to cells to facilitate its cellular uptake as described previously (Yap et al., 2010). Briefly, HMA was incubated with a 20% molar excess of potassium hydroxide (KOH) at 65° C. for 15 min. Subsequently, a 20× solution was made by dissolving the KOH saponified HMA in serum-free RPMI media containing 20% fatty acid-free BSA at 37° C., followed by an additional 15 min incubation at 37° C. Since sodium myristate was used as a control, it was also incubated in serum-free RPMI media containing 20% fatty acid-free BSA at 37° C. prior to addition to cells. Subsequently, Jurkat T cells (1×10^7 cells) were incubated with either 1 mM HMA or 1 mM sodium myristate conjugated to fatty-acid free BSA (final concentration in cell culture 1%) for 1 h at 37° C. in RPMI media (without FBS, supplements or antibiotics). After incubation, apoptosis was induced using anti-Fas (150 ng/mL) or STS (2.5 μM) with cycloheximide (5 μg/mL) or vehicle alone (DMSO). Samples were collected every 2 h for an 8 h period, washed with cold PBS and lysed with 0.3 mL of 1% sodium dodecyl sulfate (SDS)-radio-immuno-precipitation assay (RIPA) buffer and subjected to 2 rounds of sonication for 15 seconds at an output of 5.5-6.5 on a Branson Sonifier and placed on ice for 2 min in between each cycle. […]"}, "[1]": {"target": "myristoylatable decapeptide corresponding to the N-terminal sequence of ct-Bid", "test": "cell-based or functional assay"}, "[2]": {"target": "T1, myristoylatable decapeptide corresponding to the N-terminal sequence of ct-Bid", "T1 chain": "GNRSSHSRLG"}, "His-NMT1 (recombinant …)": {"target": "T2, His-NMT1 (recombinant hexahistidine-tagged full-length human N-myristoyltransferase 1), P30419", "T2 chain": "B3 chain"}, "His-NMT2 (recombinant …)": {"target": "T3, His-NMT2 (recombinant hexahistidine-tagged full-length human N-myristoyltransferase 2), O60551", "T3 chain": "B6 chain"}}, "data": [{"molecule": "CCCCCCCCCCCCC(O)C(=O)O", "note": "(stereo not shown) [HMA, 2-hydroxymyristic acid]", "values": [{"measurement": "time by which cleavage of PARP-1 occurred sooner than with 1 mM sodium myristate", "setting": "Jurkat T cells; 1 mM HMA and anti-Fas", "result": 2, "unit": "h"}, {"measurement": "PARP-1 and PAK2 cleavage vs STS and 1 mM sodium myristate", "setting": "Jurkat T cells; HMA/STS, 2 h post induction", "result": "more PARP-1 and PAK2 cleavage"}]}, {"molecule": "V5-NMT1 (N-terminally V5-tagged NMT1) (from UniProt P30419 1-496) (enzyme)", "values": [{"measurement": "NMT activity in lysates of transfected COS-7 cells relative to cells expressing V5-NMT2 (peptide myristoylation assay)", "setting": "[1]", "result": 5, "unit": "fold"}]}, {"molecule": "B1", "values": [{"measurement": "NMT activity (filter-based peptide myristoylation assay)", "setting": "[2]", "result": "both full-length and caspase cleaved truncated NMT1 and NMT2 were catalytically active when compared to the control"}, {"measurement": "NMT activity relative to full-length NMT2 (filter-based peptide myristoylation assay)", "setting": "[2]", "result": "˜3-fold (His-26NMT2) ... more activity when compared to full-length NMT2"}]}, {"molecule": "B2", "values": [{"measurement": "NMT activity (filter-based peptide myristoylation assay)", "setting": "[2]", "result": "both full-length and caspase cleaved truncated NMT1 and NMT2 were catalytically active when compared to the control"}, {"measurement": "NMT activity relative to full-length NMT2 (filter-based peptide myristoylation assay)", "setting": "[2]", "result": "˜4-fold (His-68NMT2) more activity when compared to full-length NMT2"}]}, {"molecule": "B3", "values": [{"measurement": "NMT activity (filter-based peptide myristoylation assay)", "setting": "[2]", "result": "both full-length and caspase cleaved truncated NMT1 and NMT2 were catalytically active when compared to the control"}]}, {"molecule": "B4", "values": [{"measurement": "in vitro NMT cleavage assay (Coomassie stained gel)", "setting": "His-NMT1 (recombinant …)", "result": "Reconstitution of NMT1 cleavage by caspases-8 and -3, and, NMT2 cleavage by caspase-3 in vitro"}]}, {"molecule": "B5", "values": [{"measurement": "in vitro NMT cleavage assay (Coomassie stained gel)", "setting": "His-NMT1 (recombinant …)", "result": "Reconstitution of NMT1 cleavage by caspases-8 and -3, and, NMT2 cleavage by caspase-3 in vitro"}, {"measurement": "in vitro NMT cleavage assay (Coomassie stained gel)", "setting": "His-NMT2 (recombinant …)", "result": "Reconstitution of NMT1 cleavage by caspases-8 and -3, and, NMT2 cleavage by caspase-3 in vitro"}]}, {"molecule": "B6", "values": [{"measurement": "NMT activity (filter-based peptide myristoylation assay)", "setting": "[2]", "result": "both full-length and caspase cleaved truncated NMT1 and NMT2 were catalytically active when compared to the control"}]}, {"molecule": "B7", "values": [{"measurement": "NMT activity (filter-based peptide myristoylation assay)", "setting": "[2]", "result": "both full-length and caspase cleaved truncated NMT1 and NMT2 were catalytically active when compared to the control"}]}]}
